According to the RNAGym collection of RNA variant scans (doi:10.1073/pnas.2313332121):
Variants at the floor of the assay were thinned out.

B1: TPR 5TU (parent)
chain: GGAUCUUCUCGAUCUAACAAAAAAGACAAAUCUGCCACAAAGCUUGAGAGCAUCUUCGGAUGCAGAGGCGGCAGCCUUCGGUGGCGCGAUAGCGCCAACGUUCUCAACUAUGACACGCAAAACGCGUGCUCCGUUGAAUGGAGUUUAUCAUG

Variants of: B1
Assay: polymerase ribozyme fitness, log enrichment relative to wild type (log ratio); higher = more active; in vitro selection for triplet polymerase activity
Summary of the method: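 For each subunit of a heterodimeric triplet polymerase ribozyme, a mutant library was built by PCR and transcribed, then taken through a single in vitro selection round in triplicate. Selection involved annealing to a biotinylated primer, the partner subunit and triplets, incubation frozen at −7 °C, gel excision of extended constructs, capture on streptavidin beads and RT-PCR. Genotypes were retained after Illumina sequencing of inputs and outputs only with ≥10 input reads and ≥1 read in each output. Fitness is defined as the logarithm of a genotype's enrichment relative to wild-type enrichment, using inverse-variance-weighted averages across replicates, with the logarithm taken to base 2.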

Row | Variant | polymerase ribozyme fitness (log ratio)
1 | C57U G140C | -3.55
2 | U56G U78G C79U G86A C87G C95A A115U G152C | ≤ -4.2
3 | C57A G74U C85A U130G | ≤ -4.2
4 | C57A G117U | 0.691
5 | G58A | 0.338
6 | C57U C95G U127C U139G A142G | -4.04
7 | C57U G58U | 0.297
8 | C57G U78A G84A G94C C103U C105A G133U G140U U144C | ≤ -4.2
9 | C57U G59A G86A U134A U148A | ≤ -4.2
10 | C57U G68A C72U G92A | ≤ -4.2
11 | C57G A89U A98U | -1.18
12 | C57U U151A | -4.18
13 | C57U C87U C116U C118U A119C G136A | 0.419
14 | U56G G68U G81A G84A A91C U135C | ≤ -4.2
15 | C57G A89G C93A | ≤ -4.2
16 | G58A C75G C125G C129A U151G | ≤ -4.2
17 | U56G G71C C85U C116A | ≤ -4.2
18 | C57U U82A C93A G112U C116U | ≤ -4.2
19 | C57A G84U | -1.29
20 | C57A C69G A91U A119G G128A G140C U145G | ≤ -4.2
21 | C57A C76U | 0.264
22 | C57G A98U | -0.592
23 | G58A A91C | ≤ -4.2
24 | U56A U127A A138C A142G | -3.48

Row | Variant | polymerase ribozyme fitness (log ratio)
25 | C57U A91C | ≤ -4.2
26 | C57U A91G | -2.92
27 | C57U G59A G67C G94C | ≤ -4.2
28 | U56G C93U A107G A120U | -4.12
29 | C57U G94U | -0.85
30 | C57U G94A | -0.629
31 | C57G A91G | -4.08
32 | C57U G70U C79A C93G C105G G143C | ≤ -4.2
33 | U56A U134A G143C | -4.04
34 | U56G G70U C85U U151A | ≤ -4.2
35 | C57U U102A C103U | -1.15
36 | U56A U109C | -3.5
37 | C57A A64C C85A C95U U130A A147U | ≤ -4.2
38 | C57G G84U A89C G112C U139C C149A | ≤ -4.2
39 | C57A C76G A113G G126A C129A U134G | ≤ -4.2
40 | G58A C87U C93A U130G | ≤ -4.2
41 | G58A C75U C96G | 0.314
42 | C57G C114A | -3.32
43 | C57G C114U | -1.83
44 | U56C G67U A91C A97U C123A | ≤ -4.2
45 | U56G G68C C85A C114A | ≤ -4.2
46 | C57U G84A A98U C129U A147U | -1.13
47 | C57U G84C C95A C116G G136U A138C | -4.17
48 | C57U A66C | -3.93

Row | Variant | polymerase ribozyme fitness (log ratio)
49 | G58A C87U C108U A142C | -3.89
50 | U56G A150C | -3.51
51 | C57A G124U | -0.787
52 | C57U C87U A113C A119G | -3.09
53 | C57U G59A G83C G84U C85A U101G G126A A142C | ≤ -4.2
54 | C57A C75U G92C G140U | ≤ -4.2
55 | C57A G70U C96U | -2.27
56 | C57A C87U C103G | -2.01
57 | C57U C116G G124C G141C U145G | ≤ -4.2
58 | C57U A97G | -0.11
59 | C57U G59C C95G C108U U148A | ≤ -4.2
60 | G58A A73U U101G U102A U109A | ≤ -4.2
61 | U56G G58C C99G | -2.63
62 | C57U C95U | -1.55
63 | C57U C95G | -2.96
64 | U56C C132U | -1.47
65 | U56G G84U C85A C99U | ≤ -4.2
66 | C57G C96A U139G | -0.754
67 | U56C G59A G92U U135A | -2.19
68 | C57G G68A G84U G126C U135G U144A | ≤ -4.2
69 | C57A C87A C116G U127A C129U A137G C149U | ≤ -4.2
70 | C57G G84U U109G G136U | -3.84
71 | C57G G71A C96A U146A | -4.05
72 | C57A U82A A121U G133C | -0.916

Row | Variant | polymerase ribozyme fitness (log ratio)
73 | C57U G86U | -1.78
74 | C57U G86A | -1.16
75 | C57U U130G C131U | -4.19
76 | C57A G136A | 0.714
77 | C57U C85A G100U A138G | ≤ -4.2
78 | U56G G84U A97U C99G G133U | ≤ -4.2
79 | C57U G92C A97C U145A | 0.369
80 | U56C C87U | -1.06
81 | C57G C85U | -1.28
82 | U56C C76A A122G | -0.262
83 | C57U C85U A89C U127A | -4.18
84 | C57U A73G G84C C95A C118G | -2.62
85 | U56G G68U G92A C93A A106U A115U A150C | ≤ -4.2
86 | C57U G84A | -0.782
87 | C57U C93U A115C A142C A147U | ≤ -4.2
88 | C57G A150G | -1.23
89 | C57A G70U G80A G83C C87U C108A | ≤ -4.2
90 | C57U A110G | -2.85
91 | G58A C93U | -2
92 | U56G C87A C103U C114U C125U | ≤ -4.2
93 | C57A G58A C79U G88U | ≤ -4.2
94 | U56C U109A | -1.87
95 | C57U G83U A137G | -1.92
96 | C57A G84U A89U G92U C118U U151A | ≤ -4.2

Row | Variant | polymerase ribozyme fitness (log ratio)
97 | U56A U104G A115C A142C | ≤ -4.2
98 | C57A A89C G94U A142G | -3.19
99 | C57G G59U A64C C103G C116G A137C | ≤ -4.2
100 | U56G C116G | -0.0028
101 | C57G G80A G84A | -0.169
102 | C57U C114G | -2.73
103 | G58A C75U A91G C95G | ≤ -4.2
104 | G58A C85G C118A G126C | -3.62
105 | C57U A142C | -0.377
106 | U56G G81U A91G | -3.38
107 | C57A C85U A106U C125G G136U U146G | -3.77
108 | C57A U104G A120U | -0.824
109 | U56G A60G C99U U102A | -2.07
110 | U56C C57U A89U C95G A137C | -4.07
111 | C57A G59C G84U A107G A115U A137G C149U | ≤ -4.2
112 | C57G G58A A60G A137U | -4.15
113 | C57A G86U C123U C125U | -0.745
114 | C57A U102G | -1.73
115 | C57U C87U C103G | -1.94
116 | G58A C85A | -1.11
117 | C57U A91U U102G G152U | -3.9
118 | U56A U82G | 0.243
119 | U56G C103A A122U U146A | -2.78
120 | C57U A64U C114U | ≤ -4.2

Row | Variant | polymerase ribozyme fitness (log ratio)
121 | C57A G88U A120C G124A C149A | ≤ -4.2
122 | G58A A66C G74C C131G G136U | ≤ -4.2
123 | C57U A91G A97G U135A G143A | ≤ -4.2
124 | U56C G62U C87U | -0.567
125 | C57G G83C C85U A119G | -1.44
126 | C57U C85U G143A | -0.317
127 | C57U C95A A97C C123A | -0.924
128 | C57U G94C C116U | 0.445
129 | C57A C114U | -1.45
130 | C57A G59U U77A C99G | ≤ -4.2
131 | G58A A66G C93U C99U | ≤ -4.2
132 | U56C C85A C131G | -3.7
133 | C57U G128U | -3.2
134 | C57U C75G | -3.63
135 | C57U C75U | 0.237
136 | U56G G59C C85G U135A | -2.51
137 | C57U C95U C103G | -1.87
138 | C57U C85A A98C | -1.23
139 | C57G G65A U134C | -1.35
140 | U56G C85A C95A | -1.74
141 | C57U C95A G112U U151A | -4.06
142 | C57U C85G A142C A150G | ≤ -4.2
143 | C57A C87G | -3.18
144 | C57A C87U | -1.52

Row | Variant | polymerase ribozyme fitness (log ratio)
145 | U56G G84A | -3.48
146 | U56G G92U A97U C105U | -1.61
147 | C57G A91G G100A C123A C131A | ≤ -4.2
148 | C57U G58C A60U G88A C99A | ≤ -4.2
149 | C57U U61A A89U A106G A122G A150G | -3.73
150 | G58A A121C | 0.557
151 | C57G C123U U145A | -0.237
152 | U56A U144A | -0.302
153 | C57A G133U | -3.13
154 | C57G G68U G94U C116G | ≤ -4.2
155 | C57G G67U G92C A106C | ≤ -4.2
156 | C57G C76A C95U C129G A137C U144G | ≤ -4.2
157 | G58A C87U G100C A122C G126A G141U | ≤ -4.2
158 | C57U G94U C118U G143U | ≤ -4.2
159 | U56G C114U | -1.85
160 | C57U G58C A142C | 0.768
161 | C57G G88A C96U U139C A142G | ≤ -4.2
162 | U56G A73G C87A G94U C118U | ≤ -4.2
163 | C57A A60G C79G | -3.6
164 | C57A C93U | -1.11
165 | C57A C93G | -3.05
166 | C57U U61G G86A A89U | -3.74
167 | C57A G86A U146G | -1.4
